Reference: US20120309696A1 (UNIVERSITY OF DENVER, published 2012)

Legend:
[1] = target: T1, human melanocortin 2 receptor (hMC2R), V-5 epitope tagged, expressed on CHO cells co-transfected with mouse … (human, UniProt Q01718 1-297); assay: cell-based or functional assay
[2] = target: T1, human melanocortin 2 receptor (hMC2R), …; assay: cell-based or functional assay; remark: listed apart in the source

T1 sequence (Q01718 whole entry): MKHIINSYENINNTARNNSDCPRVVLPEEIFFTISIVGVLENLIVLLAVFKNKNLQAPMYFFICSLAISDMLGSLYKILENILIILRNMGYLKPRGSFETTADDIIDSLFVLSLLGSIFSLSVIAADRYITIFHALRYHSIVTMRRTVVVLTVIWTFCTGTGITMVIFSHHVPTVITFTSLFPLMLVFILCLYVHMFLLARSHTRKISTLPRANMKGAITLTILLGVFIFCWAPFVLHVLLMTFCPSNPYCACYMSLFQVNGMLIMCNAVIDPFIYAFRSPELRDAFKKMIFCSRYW

fold decrease in potency in cAMP production against ACTH(1-24) [1] [fold]	fold decrease in MC2R activation relative to full-length ACTH (cAMP production in transfected CHO cells) [2] [fold]	Binder
1000	–	SYSMEHFRWGKPVGAAAAAVKVYP [ACTH analog SYSMEHFRWGKPVGAAAAAVKVYP]
–	400	SYSMEHFRWAAAAAKKRRPVKVYP [ACTH analog SYSMEHFRWAAAAAKKRRPVKVYP]
–	100	SYSMEHFRWGKPVGKKAAAVKVYP [ACTH analog SYSMEHFRWGKPVGKKAAAVKVYP]
–	100	SYSMEHFRWGKPVGAARRPVKVYP [ACTH analog SYSMEHFRWGKPVGAARRPVKVYP]
